Measured values published in publication PMC3477141, “Repositioning Antimicrobial Agent Pentamidine as a Disruptor of the Lateral Interactions of Transmembrane Domain 5 of EBV Latent Membrane Protein 1” (PLoS ONE, 2012).
Where no end group is shown, it is not given here.

B1: coumarin labeled LMP-1 TMD-5 peptide (peptide)
peptide: {7‑hydroxycoumarin‑3‑carboxylic acid}-GGGPGWQLLAFFLAFFLDLILLIIALYLGPGG
notes: flank between the coumarin label and TMD-5; transmembrane domain 5 (TMD-5) of latent membrane protein 1 (LMP-1) of Epstein-Barr virus; C-terminal flank; also called coumarin labeled TMD-5; source: synthetic peptide, labeled with coumarin on the resin, purified by reverse phase HPLC
B2: LMP-1 TMD-5 peptide KKKK-TMD-5-KKKK (peptide)
peptide: KKKKWQLLAFFLAFFLDLILLIIALYLKKKK
notes: lysine flank added to increase the solubility of the peptide; transmembrane domain 5 (TMD-5) of latent membrane protein 1 (LMP-1) of Epstein-Barr virus; source: synthetic peptide, purified by reverse phase HPLC

Key:
[1] = molecular target: the molecule itself; assay: coumarin fluorescence dequenching (self-quenching) assay; 100 nM coumarin labeled TMD-5 in 50 mM HEPES pH 7.4 with 150 uM C14 betaine micelles, room temperature overnight; excitation 360 nm, emission 430 nm; with or without 64 uM pentamidine
[2] = molecular target: the molecule itself; assay: Bis-Tris SDS-PAGE; 12% NuPAGE Bis-Tris gel, MES SDS running buffer, room temperature; 200 uM TMD-5 peptide in Laemmli sample buffer overnight, heated at 90 C for 7 min; Coomassie stain; pentamidine to peptide ratios 0 to 20

Protein	binding result [1]	stoichiometry N [2]
B1	binds	
B2		3
